The record followed here is patent US20260258452, “RNA-GUIDED NUCLEASES AND ACTIVE FRAGMENTS AND VARIANTS THEREOF AND METHODS OF USE” (Life Edit Therapeutics, Inc., published 2026).

What all share (assay): cell_activity; PAM SEQ ID 116
Conditions in all cases: tags: N-terminal SV40 NLS and 3xFLAG, C-terminal nucleoplasmin NLS

For one series, the target named is T1, APG07991 (Enterococcus sp.).
T1 chain: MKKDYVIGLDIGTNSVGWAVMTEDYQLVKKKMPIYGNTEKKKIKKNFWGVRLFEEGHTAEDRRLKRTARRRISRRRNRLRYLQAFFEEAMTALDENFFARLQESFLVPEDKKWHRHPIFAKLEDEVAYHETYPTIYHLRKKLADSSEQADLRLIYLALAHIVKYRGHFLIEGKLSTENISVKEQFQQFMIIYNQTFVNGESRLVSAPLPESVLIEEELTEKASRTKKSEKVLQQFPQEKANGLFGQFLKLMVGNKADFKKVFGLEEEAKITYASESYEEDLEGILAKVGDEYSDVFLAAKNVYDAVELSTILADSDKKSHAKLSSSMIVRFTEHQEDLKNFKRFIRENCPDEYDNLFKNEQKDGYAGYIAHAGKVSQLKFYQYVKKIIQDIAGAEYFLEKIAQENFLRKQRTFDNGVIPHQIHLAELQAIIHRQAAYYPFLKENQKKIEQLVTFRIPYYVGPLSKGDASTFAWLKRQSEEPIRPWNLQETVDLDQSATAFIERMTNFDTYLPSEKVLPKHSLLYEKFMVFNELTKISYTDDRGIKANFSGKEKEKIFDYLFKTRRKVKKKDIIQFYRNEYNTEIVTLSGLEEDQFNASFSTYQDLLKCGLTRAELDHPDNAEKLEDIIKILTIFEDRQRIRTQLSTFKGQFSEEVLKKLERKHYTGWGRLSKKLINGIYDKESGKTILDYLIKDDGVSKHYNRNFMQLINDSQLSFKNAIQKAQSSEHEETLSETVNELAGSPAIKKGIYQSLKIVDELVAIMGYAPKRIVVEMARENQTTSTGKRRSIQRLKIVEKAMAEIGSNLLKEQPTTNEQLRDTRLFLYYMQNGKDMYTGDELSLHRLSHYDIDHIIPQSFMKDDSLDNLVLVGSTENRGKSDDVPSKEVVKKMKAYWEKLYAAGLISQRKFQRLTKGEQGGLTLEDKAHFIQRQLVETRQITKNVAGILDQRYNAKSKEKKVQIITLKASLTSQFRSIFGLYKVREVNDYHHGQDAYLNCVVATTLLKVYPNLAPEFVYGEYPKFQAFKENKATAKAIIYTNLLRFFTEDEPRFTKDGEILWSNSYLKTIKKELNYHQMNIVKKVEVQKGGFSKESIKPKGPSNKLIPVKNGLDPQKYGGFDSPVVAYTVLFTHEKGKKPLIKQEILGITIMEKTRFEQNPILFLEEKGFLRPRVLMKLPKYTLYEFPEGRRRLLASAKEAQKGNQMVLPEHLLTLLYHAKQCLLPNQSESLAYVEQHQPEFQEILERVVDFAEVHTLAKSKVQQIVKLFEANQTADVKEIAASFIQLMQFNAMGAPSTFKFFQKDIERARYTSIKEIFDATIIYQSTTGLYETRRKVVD

In the next series the target is T2, APG02998 (Enterococcus sp.).
T2 chain: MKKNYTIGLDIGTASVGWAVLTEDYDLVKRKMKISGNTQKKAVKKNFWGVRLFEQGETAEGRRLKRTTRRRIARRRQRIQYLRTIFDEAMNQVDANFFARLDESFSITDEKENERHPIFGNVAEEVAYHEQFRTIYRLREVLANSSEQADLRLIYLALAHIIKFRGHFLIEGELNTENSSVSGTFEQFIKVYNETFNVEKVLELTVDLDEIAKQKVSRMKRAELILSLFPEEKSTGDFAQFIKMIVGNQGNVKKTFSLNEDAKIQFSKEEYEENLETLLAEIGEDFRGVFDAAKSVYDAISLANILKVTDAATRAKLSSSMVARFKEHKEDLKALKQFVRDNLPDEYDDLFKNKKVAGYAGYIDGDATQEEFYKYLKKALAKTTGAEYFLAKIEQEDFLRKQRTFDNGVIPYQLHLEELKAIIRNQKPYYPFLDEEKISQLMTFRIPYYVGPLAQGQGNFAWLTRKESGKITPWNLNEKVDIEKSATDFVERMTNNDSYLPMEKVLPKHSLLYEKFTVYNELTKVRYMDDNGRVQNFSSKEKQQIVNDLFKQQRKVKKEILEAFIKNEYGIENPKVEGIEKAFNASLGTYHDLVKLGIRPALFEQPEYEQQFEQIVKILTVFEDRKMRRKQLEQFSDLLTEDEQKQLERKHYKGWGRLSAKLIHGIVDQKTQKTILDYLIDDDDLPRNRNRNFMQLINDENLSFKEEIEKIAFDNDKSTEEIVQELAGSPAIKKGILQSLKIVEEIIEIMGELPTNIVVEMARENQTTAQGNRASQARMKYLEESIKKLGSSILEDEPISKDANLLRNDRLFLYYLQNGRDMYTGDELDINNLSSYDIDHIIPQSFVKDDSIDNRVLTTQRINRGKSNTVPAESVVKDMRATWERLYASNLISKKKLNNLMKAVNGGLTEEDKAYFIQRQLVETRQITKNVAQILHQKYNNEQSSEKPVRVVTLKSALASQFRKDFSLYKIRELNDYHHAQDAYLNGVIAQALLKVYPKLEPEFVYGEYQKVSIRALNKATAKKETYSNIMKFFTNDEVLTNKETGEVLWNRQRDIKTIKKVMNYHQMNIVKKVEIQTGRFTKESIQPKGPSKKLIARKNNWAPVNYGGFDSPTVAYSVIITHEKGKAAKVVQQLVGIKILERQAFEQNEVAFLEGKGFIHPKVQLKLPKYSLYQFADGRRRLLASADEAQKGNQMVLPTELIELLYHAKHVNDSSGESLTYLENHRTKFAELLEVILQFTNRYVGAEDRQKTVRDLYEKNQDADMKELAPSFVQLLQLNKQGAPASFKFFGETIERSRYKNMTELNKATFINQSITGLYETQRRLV

The next series concerns the target T3, APG01868 (Enterococcus sp.).
T3 chain: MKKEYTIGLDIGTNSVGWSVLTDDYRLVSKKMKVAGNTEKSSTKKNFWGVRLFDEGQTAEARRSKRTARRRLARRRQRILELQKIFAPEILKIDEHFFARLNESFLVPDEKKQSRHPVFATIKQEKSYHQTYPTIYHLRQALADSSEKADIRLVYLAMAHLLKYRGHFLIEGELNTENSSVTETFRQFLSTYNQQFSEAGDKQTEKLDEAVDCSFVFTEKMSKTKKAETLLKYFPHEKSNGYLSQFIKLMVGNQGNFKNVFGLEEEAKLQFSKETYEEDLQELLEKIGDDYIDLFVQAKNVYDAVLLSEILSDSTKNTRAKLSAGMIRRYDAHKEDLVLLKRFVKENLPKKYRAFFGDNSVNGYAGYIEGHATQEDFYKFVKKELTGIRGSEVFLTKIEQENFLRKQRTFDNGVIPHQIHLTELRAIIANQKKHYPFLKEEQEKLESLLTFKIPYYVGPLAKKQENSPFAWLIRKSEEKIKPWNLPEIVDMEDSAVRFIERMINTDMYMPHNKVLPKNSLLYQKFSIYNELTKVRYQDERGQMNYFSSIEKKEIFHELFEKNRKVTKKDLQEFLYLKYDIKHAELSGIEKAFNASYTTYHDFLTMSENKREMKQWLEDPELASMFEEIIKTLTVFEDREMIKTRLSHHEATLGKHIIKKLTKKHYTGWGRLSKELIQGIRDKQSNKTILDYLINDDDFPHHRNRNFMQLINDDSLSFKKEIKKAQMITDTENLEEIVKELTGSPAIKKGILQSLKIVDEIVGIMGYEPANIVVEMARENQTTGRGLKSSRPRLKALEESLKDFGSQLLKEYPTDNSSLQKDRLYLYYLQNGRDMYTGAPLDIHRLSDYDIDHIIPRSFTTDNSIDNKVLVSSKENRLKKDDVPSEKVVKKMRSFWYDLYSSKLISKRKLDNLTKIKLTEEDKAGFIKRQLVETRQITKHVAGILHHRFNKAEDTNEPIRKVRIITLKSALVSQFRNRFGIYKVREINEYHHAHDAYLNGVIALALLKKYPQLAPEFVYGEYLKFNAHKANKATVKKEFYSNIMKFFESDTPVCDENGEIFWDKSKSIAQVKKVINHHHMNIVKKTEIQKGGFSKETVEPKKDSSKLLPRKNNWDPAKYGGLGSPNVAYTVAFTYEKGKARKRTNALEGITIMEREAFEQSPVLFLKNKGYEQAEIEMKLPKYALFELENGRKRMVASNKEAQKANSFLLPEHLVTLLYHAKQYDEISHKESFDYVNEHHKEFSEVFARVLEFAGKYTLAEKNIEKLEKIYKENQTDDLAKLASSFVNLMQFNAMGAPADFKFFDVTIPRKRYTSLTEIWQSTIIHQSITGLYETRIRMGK

Description for APG01868: (§1) Additionally, products from PCR #2 containing Illumina overhang sequences underwent library preparation following the Illumina 16S Metagenomic Sequencing Library protocol. Deep sequencing was performed on an Illumina Mi-Seq platform by a service provider (MOGene). Typically, 200,000 of 250 bp paired-end reads (2×100,000 reads) are generated per amplicon. […] Output alignments were hand-curated to confirm insertion and deletion sites as well as identify microhomology sites at the recombination sites. All experiments were performed in human cells. The “target sequence” is the targeted sequence within the gene target. For each target sequence, the guide RNA comprised the complementary RNA target sequence and the appropriate sgRNA depending on the RGN used.
Description for APG02998: as §1
Description for APG07991: as §1

B1: SGN001357 ; HAO1 target SGN001357 (ssRNA ; dsDNA)
RNA: CAUUGAUACAAAUUAGCCGGGUUUUAGAGUCAUGUUGAAAGCAACAUAGCAAGUUAAAAUAAGGUUUUAACCGUAAUCAACUGUAAAGUGGCGCUGUUUCGGCGCUUUU
DNA 1: CATTGATACAAATTAGCCGG
DNA 2: CCGGCTAATTTGTATCAATG
With B1, the activity with APG07991 is 13.3 % editing.

B2: SGN001320 ; RelA target SGN001320 (ssRNA ; dsDNA)
RNA: ACAGUGCGCAUCUCCCUGGUCACCAGUUUUAGAGCUAUGCAAAGGCAUAGCAAGUUAAAAUAAGGCUUAGUCCGUAAACAAACUUUGGCACUGUAUUCGGUGCUUUUUUU
DNA 1: ACAGTGCGCATCTCCCTGGTCACCA
DNA 2: TGGTGACCAGGGAGATGCGCACTGT
With B2, the activity in the series with APG02998 is 3.48 % editing.

B3: SGN001317 ; RelA target SGN001317 (ssRNA ; dsDNA)
RNA: ACAGUGCGCAUCUCCCUGGUCACCAGUUUUAGAGCUAUGCAAAGGCAUAGCAAGUUAAAAUAAGGCUUUGUCCGUCAUCAGCUUUUUUAAAGCAGCGCUGUUCUCGGCGCUUUU
DNA 1: ACAGTGCGCATCTCCCTGGTCACCA
DNA 2: TGGTGACCAGGGAGATGCGCACTGT
Consider B3, for which the activity with APG01868 worked out at 19.4 % editing.

B4: SGN001343 ; TRA target SGN001343 (ssRNA ; dsDNA)
RNA: UCUGUGGGACAAGAGGAUCAGUUUUAGAGCUAUGCAAAGGCAUAGCAAGUUAAAAUAAGGCUUUGUCCGUCAUCAGCUUUUUUAAAGCAGCGCUGUUCUCGGCGCUUUU
DNA 1: TCTGTGGGACAAGAGGATCA
DNA 2: TGATCCTCTTGTCCCACAGA
Take B4: the activity with APG01868 turned out to be 41.4 % editing.

B5: SGN001346 ; TRA target SGN001346 (ssRNA ; dsDNA)
RNA: UCUGUGGGACAAGAGGAUCAGUUUUAGAGCUAUGCAAAGGCAUAGCAAGUUAAAAUAAGGCUUAGUCCGUAAACAAACUUUGGCACUGUAUUCGGUGCUUUUUUU
DNA 1: TCTGTGGGACAAGAGGATCA
DNA 2: TGATCCTCTTGTCCCACAGA
On to B5, for which the activity with APG02998 was 5.87 % editing.
